Measurements reported in the RNAGym collection of RNA variant scans (doi:10.7554/elife.90254).

B1: LINE1-mini (parent)
chain: GGCAGAGCUCAACACAGCGUGGCAAAGUGGCUGUGGCUAGACUGCC

Variants of: B1
Test: self-cleavage, relative activity (ratio to wild type); higher = more cleavage; in vitro, sequencing; the parent is a self-cleaving ribozyme

First: GGCAGAGCUCAACAUAGCGUGGCAAACUGGCUGUGGCUAGACUGCC [C15U G27C]
Second: GGCAGAGCUCAACACAGCGUGGGAGAGUGGCUGUGGCUAGACUGCC [C23G A25G]
The self-cleavage of the first is lower: 0.87 for the first, 1 for the second.

Going from GGCAGAGCUCAACACAGCGUGGCAAAGUGGCUGUGGGUCGACUGCC [C37G A39C] to GGCUGAGCUCAACACAGCGUGGCAAACUGGCUGUGGCUAGACUGCC [A4U G27C], the self-cleavage rises from 0.06 to 0.17.

Compared with GGCAGAGCACAACACAGUGUGGCAAAGUGGCUGUGGCUAGACUGCC [U9A C18U], GGCAGCGCUCAACACAGCGUGGCAAAGAGGCUGUGGCUAGACUGCC [A6C U28A] is higher in self-cleavage: 0.11 for the first, 0.64 for the second.

Compared with GGUAGAGCUCAACACAGCGUGGCAAAGUGGCUGCGGCUAGACUGCC [C3U U34C], GGCAGAGCCCAACACAGCGUGGCAAAGUAGCUGUGGCUAGACUGCC [U9C G29A] is lower in self-cleavage: 0.07 for the first, 0.02 for the second.

First: GGCAGAGCUCAACACAGAGUGGCAAAGUGGCUGUGGUUAGACUGCC [C18A C37U]
Second: GGCACAGCUCAACACAGCGUGGCAACGUGGCUGUGGCUAGACUGCC [G5C A26C]
The self-cleavage of the first is higher: 0.07 for the first, 0.06 for the second.

Going from GGCAGAGCUCAACACAUCGUGGCAAAGUGGCUGUGUCUAGACUGCC [G17U G36U] to GGCAGAGCUCAACAGAGCGCGGCAAAGUGGCUGUGGCUAGACUGCC [C15G U20C], the self-cleavage falls from 0.05 to 0.03.

Going from GGCAGAGCUAAACACAGUGUGGCAAAGUGGCUGUGGCUAGACUGCC [C10A C18U] to GGCAGAGCUCAAGACAGCGUAGCAAAGUGGCUGUGGCUAGACUGCC [C13G G21A], the self-cleavage rises from 0.07 to 0.38.

Going from GGCAGAGCUCAACACAGCGUGGCAAAGUGGCUGUGGCGAGACUGGC [U38G C45G] to GGCAGAGCUCAACACAGUGUGGCAAAGUGGCUGUGUCUAGACUGCC [C18U G36U], the self-cleavage rises from 0.05 to 0.06.

First: GGCAGAGCUCUACACAGCGUGGCAAAGUGGCUGUGGCUAGACUUCC [A11U G44U]
Second: GGCAGAGCUCAUCUCAGCGUGGCAAAGUGGCUGUGGCUAGACUGCC [A12U A14U]
The self-cleavage of the first is lower: 0.05 for the first, 0.18 for the second.

Going from GGUAGAGCUGAACACAGCGUGGCAAAGUGGCUGUGGCUAGACUGCC [C3U C10G] to GGCAGAGCUAAACACAGCGUGGCAAAGUGGCUGUGGGUAGACUGCC [C10A C37G], the self-cleavage falls from 0.03 to 0.01.

Going from GGCAGAGCUAAACACAGCGUGGCAAAGUGGCUGUGGUUAGACUGCC [C10A C37U] to GGCAGAGCUCAACACGGCGUGGCAAAGAGGCUGUGGCUAGACUGCC [A16G U28A], the self-cleavage rises from 0.01 to 0.53.

First: UGAAGAGCUCAACACAGCGUGGCAAAGUGGCUGUGGCUAGACUGCC [G1U C3A]
Second: GGCAAAGCUCAACACAGCGUGGCAAAGCGGCUGUGGCUAGACUGCC [G5A U28C]
The self-cleavage of the first is higher: 0.85 for the first, 0.14 for the second.

First: GGCAGUGCUCAACACAGCGAGGCAAAGUGGCUGUGGCUAGACUGCC [A6U U20A]
Second: GGCAGUGCUCAACACAGCGCGGCAAAGUGGCUGUGGCUAGACUGCC [A6U U20C]
The self-cleavage of the first is higher: 0.37 for the first, 0.3 for the second.

Compared with GGCAGAGCUCAACAGUGCGUGGCAAAGUGGCUGUGGCUAGACUGCC [C15G A16U], GGCAGAGCACAACACAGCGUGGCAAAGUGGCUGUGGCUAGACGGCC [U9A U43G] is higher in self-cleavage: 0.05 for the first, 0.28 for the second.

Going from GGCAGAGCUCAACACAACGUGGCAAAGUGGCUGUGGGUAGACUGCC [G17A C37G] to GGCAGAGCUCAGGACAGCGUGGCAAAGUGGCUGUGGCUAGACUGCC [A12G C13G], the self-cleavage falls from 0.05 to 0.04.

Going from GUCAGGGCUCAACACAGCGUGGCAAAGUGGCUGUGGCUAGACUGCC [G2U A6G] to GGCAGAGCUCAACACAGCGUAGCAAAGUGGCUGUGGCUAGACUGAC [G21A C45A], the self-cleavage rises from 0.03 to 0.97.

First: GGCAGAGCUCAACACAGCGUGGUAAAGUGGCUGUGGCUAGACUGCG [C23U C46G]
Second: GGCGGAGCUCAACACAGCGUGGCAAAGUGGCUGUGGCUAGACUGUC [A4G C45U]
The self-cleavage of the first is higher: 1.58 for the first, 0.6 for the second.

Compared with GGCAGAGCUCAACACAGCGUGGCAAAGUGACUGUGGCUAGACUACC [G30A G44A], GGCAGAGCUCAACACAGCGUCGCAAAGUGGCUGUGGCUAGACUGCU [G21C C46U] is higher in self-cleavage: 0.64 for the first, 0.83 for the second.

Compared with GGCAGAGCUCAACACAGCGCGGCUAAGUGGCUGUGGCUAGACUGCC [U20C A24U], GGCAAAGCUCAACACAGCGUGGAAAAGUGGCUGUGGCUAGACUGCC [G5A C23A] is lower in self-cleavage: 0.67 for the first, 0.14 for the second.

Compared with GGCAUAGCUCAACACAGCGUGCCAAAGUGGCUGUGGCUAGACUGCC [G5U G22C], GGCAGAGCUCAAGACAGCGAGGCAAAGUGGCUGUGGCUAGACUGCC [C13G U20A] is higher in self-cleavage: 0.06 for the first, 0.13 for the second.

Compared with GGCAGAGCUCAACACAGCGUGGCAAAGUGGCUGGGGCUGGACUGCC [U34G A39G], GGCAGAGCUCAACACCGCGUGGCAAAGUCGCUGUGGCUAGACUGCC [A16C G29C] is higher in self-cleavage: 0.07 for the first, 0.77 for the second.

Going from GGCGGAGCUCAACACAGCGUCGCAAAGUGGCUGUGGCUAGACUGCC [A4G G21C] to GGCAGAGCUCAACACAGCGUGGGAAAGUGGCUGUGGCUAGAAUGCC [C23G C42A], the self-cleavage falls from 0.24 to 0.19.

Compared with GGCAGAGCUCAACACAGCGAGGCAAAGUGGCUGUGGCUAGACUGCG [U20A C46G], GGUAGAGCUCAACACAGCGUGGCAAAGUGGCUGUGGCUAGACUGCA [C3U C46A] is lower in self-cleavage: 0.79 for the first, 0.18 for the second.

Compared with GGCAGAGCUCAACACCGCGGGGCAAAGUGGCUGUGGCUAGACUGCC [A16C U20G], GGCGGAGCUCAACACAGCGUGGCAAAGUGGCUGUGCCUAGACUGCC [A4G G36C] is higher in self-cleavage: 0.08 for the first, 0.16 for the second.

Compared with GGCAGAGCUCAACACAGCGUGGCAAAGUGGCUGUGGCUAGCCGGCC [A41C U43G], GGCUGAGCUCAACACAGCGUGGCAAAGUGGCUGUGUCUAGACUGCC [A4U G36U] is higher in self-cleavage: 0.06 for the first, 0.08 for the second.

Compared with GGCAGAGUGCAACACAGCGUGGCAAAGUGGCUGUGGCUAGACUGCC [C8U U9G], GGCAGAGCUCAACACAGCGGGCCAAAGUGGCUGUGGCUAGACUGCC [U20G G22C] is higher in self-cleavage: 0.09 for the first, 0.41 for the second.

Compared with GGCAGAGCUCAACACGGCGUGGCAGAGUGGCUGUGGCUAGACUGCC [A16G A25G], GGCAGAGCUCAACACAUCGUGGCAAAGUGGCUGAGGCUAGACUGCC [G17U U34A] is higher in self-cleavage: 0.04 for the first, 0.05 for the second.

First: GGCAGAGCUCAACACAGCGUGGCCAAGUGGCUGUGGCUAGACUCCC [A24C G44C]
Second: GGCAGAGCUCAACACCGCGUGGUAAAGUGGCUGUGGCUAGACUGCC [A16C C23U]
The self-cleavage of the first is higher: 0.47 for the first, 0.45 for the second.
